tested on: HEK293T; experiment: median enrichment of reporter reads in eGFP-reduced (low/intermediate) vs eGFP-high sorted cells (eGFP-extension fusion abundance) (ratio); higher = stronger loss of eGFP-fusion protein abundance (more destabilising extension)
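Further: lentiviral eGFP-IRES-mCherry reporter pool sorted by FACS 96 h post-transduction, gated on mCherry-high cells, Illumina read counts normalized per million, median across four biological replicates.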

Point of comparison: YPSVLHTARGPRMPRPPLAPAGREPDHLPC [CHI3L1], median enrichment 2.05. Against it:
- EVGQPLMSWFLQLSFPLGCIEGFS [RAG1] — higher, 6.39
- DLASKKSCSVPCVLSFKGIFRINSDLEDSSVLQRLAFIFIVIMEMLSFILSYIRKKGVMQLISISLGNALVLFSSFLVPVTCL [CREB5] — higher, 14
- YKTPCSAILISYR [APOO] — higher, 4.54
- QQQQQQQ [Gln07] — lower, 0.347
- LSLLIQKWGQFRKNYLLFAWWFFIMDLAQKKNC [GART] — higher, 11.7
- SEVPDMGPICSSSQLLSLTSHHGGSSHLLWICSL [CIAPIN1] — higher, 4.18
- SQKHVHFGKQACILPVQYLHSTDGTVWRSTFSYFCESIHVGPVSRICTFVPSTVTANLSV [ARHGEF3] — higher, 10.6
- LLSITKVYSKIIF [HNMT] — higher, 7.95
- YSPTPTAAYLHFQFLRGTEASSQHAANLWSLILTPSPTPVVGLYYV [KIF5A] — higher, 6.66
- YMCPTDPGTFLPQCCACKYTVKLSLYHFDRGED [GLRA2] — higher, 11.1
- QDSQLHRRLLPGLLLGRPPACPPCVSTPPARLPAGPSTPCVHTTSNLIGADVFIFLEFLFML [DDA1] — higher, 7.88
- QGLQKNWPWGTKAFFSGLLPRP [KANK4] — higher, 4.85
- SESTGSSQTYRCPAR [FAM221B] — lower, 0.476
- RKFLLNISVGSCYQNFGYDFLGSVYFGCILNYGNGIYLLLTVNLFF [CCDC181] — higher, 5.89
- RSSKPTKHQKTHSQTSEHKLHG [PLCB4] — lower, 0.191
- RAPPLTEAAPPTAPNKNVKTNPRT [NDUFA3] — lower, 0.588
- QQQQQ [Gln05] — lower, 0.381
- RPPAPNSIIYYGAAPPGWPDPWALGLWILVPCLENSPPLAPHCSL [CYTH2] — higher, 8.4
- LGFRSAT [KIF15] — lower, 1.28
- KCSIYIYN [REC114] — higher, 18.5
- SGTVGCVGVGIPLAPASPTLALQLGPRGISVLLSQGRSPAGDGGRGSSILPRVCLGVCEQVCKTPEAEAILPPRSLEGVCAWA [ZSWIM4] — higher, 5.27
- QGAGPWMVPVCLALGMAVEGTWQKQPHVLPCPRPGVDKTRGVFWSPPAELEASHCNFSAQGLLNRCERPVPRVSL [SLC6A13] — higher, 14.4
- RGIRLPGNSGTVALADHLQHPAS [SLC2A10] — lower, 0.279
- LSFCLA [UTP3] — higher, 8.65
- RAS [ABCF2] — lower, 0.408
- QLYVGLSLEYVWSPGLSRLEQQSLLLAYHRD [ZFYVE21] — higher, 9.76
- SIILSPFGSCVERECEIYIISFWERLVLDAP [HSP90B1] — higher, 10.5
- RYQKKK [STARD6] — lower, 0.951
- QPSSCKAIAKQGGSLQSMPGDYVSQGGPMGMSMAQPSYTPPQMTPHPTQLRHGPPMHSYLPSHPHHPAMMMHGGPPTHPGMTM [MEIS2] — higher, 3.91
- SERQEVEWRR [STAMBPL1] — lower, 0.37
- CGWPRAVRTMKPGQRPGASPAALPTRHPPASPLGAGAHPQHPHLLINISTPGCST [COPE] — higher, 5.98
- CRSWRTLGPRPAPIAGGR [MKNK2] — higher, 8.08
- QPHGAVLLMLEAS [ESPL1] — higher, 6.52
- EDTPSPDSTGNRSSPDSPPRRASPRPCTGSEASVTLPLCSPVP [KDM2A] — lower, 0.106
- KIWLFMHCGMCSSFSVFRYKVLYQSVIYKVYQHKCW [MLH1] — higher, 5.38
- SQSG [PARD6A] — lower, 1.41
- YLRTLPFFPLSSLPLPFLPIYPFPSSKSTQGEENKMTTQDLVAKILHSKSSFV [FGF12] — higher, 9.45
- CLSGRANPENEDWKKEKKKNTSKVSSEIVLHLLYSLEDFHYVLTTLKCVNS [FOXP1] — higher, 9.44
- LASCGPGNEMELTA [TSSK1B] — lower, 1.49
- CGACYGLNCAPK [ZNF81] — lower, 1.07
- SQESRASLPRIAFIPKFAWK [CMBL] — higher, 2.33
- LWLPRPGRLLDILFWLNIVLWMVPQSGARILPRRKATNGSGNYIKPETLQQGENCAPGCLAQASLEPSKHFCPS [MAB21L3] — higher, 6.66
- IIIIIIIIII [Ile10] — higher, 6.67
- GGAVAANTPASGLLVAAPGDTPAKPTRWRGPPWSLATLPASAQGPLPSPGHLLCRRHSSQKPLSQKRLVFKKSRFFAPEVSFR [AP1M1] — higher, 5.45
- YPLLKECEI [NCOA1] — lower, 0.498
- LNLNGHYKLSNST [ARMC4] — lower, 1.8
- GGGGG [Gly05] — lower, 1.79
- QEMWSLRCLKSTTMPGIEEDYYLKQWALVFGASDMPSILPSWN [G6PC] — higher, 10.6
- LGNCWLAWHHHTATASHLLCQGGTSSAGACPVLCGRCCVLLNTAGPAITPWAWRSLGVSRCGGGQPGWPHSITGTACLGTRFP [PIGQ] — higher, 5.81
- GGGG [Gly04] — higher, 5.17
- YLLCVVGGGYYLYQPSVCHEPVGKSDIFII [IL1RAP] — higher, 6.77
- QELVGSLRTPVLLTPSF [TSNAXIP1] — higher, 2.24
- RVFLGIVFCSCFSVLGMGPGPDTPSPPLWPWPLKLQTQVPILFSPSNAPPNLQPPCLQLPGPGRALVPSLGLIFSLNSTDQLP [JUP] — higher, 7.92
- LAVWAPRGLALLPGLGEPRAALPWQRQDVGERSLVQ [GRK6] — higher, 3.3
- YVHGLSLYPTALLCDSLMKLVTFTSQNFG [KDM4D] — higher, 7.32
- RMNTCQE [OR52N4] — lower, 0.48
- WSLRWSFVTARFARHLPGWLVLG [ARHGEF26] — higher, 15.8
- LAPASGLAIPLLSADYGVSTFGHNTYSPFTLYHSATNHRTDHLRLFLLALCVQDSLIHFCW [GIGYF2] — higher, 35.9

Source: the supplement of paper PMC11502859
